Patent publication US20250188151A1, “C-JUN ANTAGONIST PEPTIDES” (The University of Bath, priority 2022, published 2025)
Each block holds one molecule with its values, some of them ahead of it. Bridge positions count the residues as written; N and C are the ends. Peptide text beside a SMILES is read from it.

Experiments:
cJun bZIP [1] = molecular target: cJun bZIP (Homo sapiens, UniProt P05412, S292Y); experiment: CD spectra and thermal denaturation of peptide/cJun heterodimers; details: peptide (5 μM)/c-Jun (5 μM) heterodimer; Table 6
Protocol: Circular Dichroism (CD): An Applied Photophysics Chirascan was used for CD measurements, with a 200 μL sample in a 1 mm path length CD cell. Protein/DNA samples were suspended in 150 mM potassium phosphate, 150 mM potassium fluoride and 5 mM TCEP at pH 7.4 and were equilibrated for 30 minutes before measurement. […] These scans were averaged and converted to molar residue ellipticities (MRE). Thermal denaturation experiments were performed by measuring the ellipticity at 222 nm over a 1 to 90° C. gradient at 1° C. increments. Post-melt scans at 20° C. confirmed the transitions were reversible as they overlaid within 10% of the pre-melt scan.
Circular Dichroism (CD): An Applied Photophysics Chirascan was used for CD measurements, with a 200 μL sample in a 1 mm path length CD cell. Protein/DNA samples were suspended in 150 mM potassium phosphate, 150 mM potassium fluoride and 5 mM TCEP at pH 7.4 and were equilibrated for 30minutes before measurement. […] Thermal denaturation experiments were performed by measuring the ellipticity at 222 nm over a 1 to 90° C. gradient at 1° C. increments. Post-melt scans at 20° C. confirmed the transitions were reversible as they overlaid within 10% of the pre-melt scan.
Peptide helicity was determined by quantifying the CD signal at 222 nm of peptide only samples. Thermal denaturation experiments were then used to determine the Tm of peptide-c-Jun heterodimers, which was used as an approximate measure of target engagement. […] The same 60 amino acid c-Jun bZIP construct was used for all experiments, regardless of antagonist peptide length.

cJun bZIP [2] = molecular target: T1, cJun bZIP (human, UniProt P05412 252-308, limits assumed); experiment: cell-based or functional assay
T1 chain: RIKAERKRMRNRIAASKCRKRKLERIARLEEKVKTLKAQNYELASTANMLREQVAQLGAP

cJun bZIP [3] = molecular target: T1, cJun bZIP; experiment: CD thermal denaturation, peptide 5 µM and c-Jun 5 µM
cJun bZIP [4] = molecular target: T1, cJun bZIP; experiment: ITC (PEAQ-ITC), peptide injected into cJun, one site model

Tm (° C.) (cJun bZIP [1]): 57.5 ± 1.1 °C
Molecule: Ac-EAKELVDEEDVLEEEIEQLEERNYALRKEIEDLQKQ-NH2 [Peptide 14]

Tm (° C.) (cJun bZIP [1]): 64.3 ± 1.3 °C
Molecule: Ac-EDVLEEEIEQLEERNYALRKEIEDLQKQLEKLY-NH2 [Peptide 7]

Tm (° C.) (cJun bZIP [1]): 62.1 ± 1.4 °C
Molecule: Ac-LVVEEDVLEEEIEQLEERNYALRKEIEDLQKQLEDL-NH2 [Peptide 9]

Tm (° C.) (cJun bZIP [1]): 55.5 ± 1.7 °C
Molecule: Ac-EAEELVVEEDVLEEEIKQLEDRNYALRKEIEDLQKQ-NH2 [Peptide 18]

Tm (° C.) (cJun bZIP [1]): 56.2 ± 1.3 °C
Molecule: Ac-EAEELVVEEDVLEEEIEQLEEKNKALKDEIEDLQKQY-NH2 [Peptide 20]

Tm (° C.) (cJun bZIP [1]): 56.5 ± 1.6 °C
Molecule: Ac-KEAEDLVVEEDVLEEEIEQLEERNYALRKEIKDLQDQ-NH2 [Peptide 12]

Tm (° C.) (cJun bZIP [1]): 54.9 ± 1.2 °C
Molecule: Ac-EAEELVVEEKVLEDEIEQLEERNYALRKEIEDLQKQ-NH2 [Peptide 16]

Tm (° C.) (cJun bZIP [1]): 53.8 ± 5.3 °C
Molecule: Ac-EAEELVVEEDVLEEEIEQLEERNYALRKEIEDLQ-NH2 [Peptide 28]

Tm (° C.) (cJun bZIP [1]): 58.9 ± 1.0 °C
Molecule: CC[C@H](C)[C@H](NC(=O)[C@H](CCC(=O)O)NC(=O)[C@@H]1CC(=O)NCCCC[C@H](NC(=O)[C@H](CC(N)=O)NC(=O)[C@H](CCCCN)NC(=O)[C@H](CCC(=O)O)NC(=O)[C@H](CCC(=O)O)NC(=O)[C@H](CC(C)C)NC(=O)[C@H](CCC(N)=O)NC(=O)[C@H](CCC(=O)O)NC(=O)[C@@H](NC(=O)[C@H](CCC(=O)O)NC(=O)[C@H](CCC(=O)O)NC(=O)[C@H](CCC(=O)O)NC(=O)[C@H](CC(C)C)NC(=O)[C@@H](NC(=O)[C@H](CC(=O)O)NC(=O)[C@H](CCC(=O)O)NC(=O)[C@H](CCC(=O)O)NC(=O)[C@@H](NC(=O)[C@@H](NC(=O)[C@H](CC(C)C)NC(=O)[C@H](CCC(=O)O)NC(=O)[C@H](CCC(=O)O)NC(=O)[C@H](C)NC(=O)[C@H](CCC(=O)O)NC(C)=O)C(C)C)C(C)C)C(C)C)[C@@H](C)CC)C(=O)N[C@@H](C)C(=O)N[C@@H](CC(C)C)C(=O)N[C@@H](CCCCN)C(=O)N1)C(=O)N[C@@H](CCC(=O)O)C(=O)N[C@@H](CC(=O)O)C(=O)N[C@@H](CC(C)C)C(=O)N[C@@H](CCC(N)=O)C(=O)N[C@@H](CCCCN)C(=O)N[C@@H](CCC(N)=O)C(=O)N[C@@H](Cc1ccc(O)cc1)C(N)=O [Peptide 21] (Ac-EAEELVVEEDVLEEEIEQLEEKNKALKDEIEDLQKQY-NH2; lactam 24-28)

Tm (° C.) (cJun bZIP [1]): 60.9 ± 3.6 °C
Molecule: CC[C@H](C)[C@H](NC(=O)[C@H](CCC(=O)O)NC(=O)[C@H](CCCCN)NC(=O)[C@H](CCCNC(=N)N)NC(=O)[C@H](CC(C)C)NC(=O)[C@H](C)NC(=O)[C@H](Cc1ccc(O)cc1)NC(=O)[C@H](CC(N)=O)NC(=O)[C@H](CCCNC(=N)N)NC(=O)[C@@H]1CC(=O)NCCCC[C@H](NC(=O)[C@@H](NC(=O)[C@H](CCC(=O)O)NC(=O)[C@H](CCC(=O)O)NC(=O)[C@H](CCC(=O)O)NC(=O)[C@H](CC(C)C)NC(=O)[C@@H](NC(=O)[C@H](CC(=O)O)NC(=O)[C@H](CCC(=O)O)NC(=O)[C@H](CCC(=O)O)NC(=O)[C@@H](NC(=O)[C@@H](NC(=O)[C@H](CC(C)C)NC(=O)[C@H](CCC(=O)O)NC(=O)[C@H](CCC(=O)O)NC(=O)[C@H](C)NC(=O)[C@H](CCC(=O)O)NC(C)=O)C(C)C)C(C)C)C(C)C)[C@@H](C)CC)C(=O)N[C@@H](CCC(N)=O)C(=O)N[C@@H](CC(C)C)C(=O)N[C@@H](CCC(=O)O)C(=O)N1)C(=O)N[C@@H](CCC(=O)O)C(=O)N[C@@H](CC(=O)O)C(=O)N[C@@H](CC(C)C)C(=O)N[C@@H](CCC(N)=O)C(=O)N[C@@H](CCCCN)C(=O)N[C@@H](CCC(N)=O)C(N)=O [Peptide 19] (Ac-EAEELVVEEDVLEEEIKQLEDRNYALRKEIEDLQKQ-NH2; lactam 17-21 (inferred))

Tm (° C.) (cJun bZIP [1]): 55.6 ± 1.2 °C
Molecule: Ac-EAEELVVEEDVLEEEIEQLEERNYALRKEIKDLQDQ-NH2 [Peptide 22]

IC50 CD (cJun bZIP [2]): 725 µM
B1: HingeW variant peptide 28 (peptide)
peptide: Ac-EAEELVVEEDVLEEEIEQLEERNYALRKEIEDLQ-NH2
notes: Synthetic, NΔ20 CΔ9; also called linear form of 28/29
Tm (° C.) of peptide-c-Jun heterodimer (cJun bZIP [3]): 53.8 ° C.

Continued, molecule first:

B2: HingeW variant peptide 20 (peptide)
peptide: Ac-EAEELVVEEDVLEEEIEQLEEKNKALKDEIEDLQKQY-NH2
notes: Synthetic, NΔ20 CΔ7; also called linear form of 20/21
IC50 CD (cJun bZIP [2]): 121 µM
Tm (° C.) of peptide-c-Jun heterodimer (cJun bZIP [3]): 56.2 ° C.

B3: HingeW variant peptide 21 (peptide)
peptide: Ac-EAEELVVEEDVLEEEIEQLEEKNKALKDEIEDLQKQY-NH2
modifications: lactam 24-28 (inferred)
notes: Synthetic, NΔ20 CΔ7; also called cyclised form of 20/21
IC50 CD (cJun bZIP [2]): 94.1 µM
Tm (° C.) of peptide-c-Jun heterodimer (cJun bZIP [3]): 58.9 ° C.

Molecule: Ac-LVVEEDVLEEEIEQLEEKNKALKDEIEDLQKQLEKLY-NH2 (also: table prints a different, shorter sequence for 7/8, also called linear form of 7/8) [HingeW variant peptide 7]
IC50 CD (cJun bZIP [2]): 83.9 µM
Tm (° C.) of peptide-c-Jun heterodimer (cJun bZIP [3]): 64.3 ° C.

B4: HingeW variant peptide 12 (peptide)
peptide: Ac-KEAEDLVVEEDVLEEEIEQLEERNYALRKEIKDLQDQ-NH2
notes: Synthetic, NΔ19 CΔ7; also called linear form of 12/13
IC50 CD (cJun bZIP [2]): 115 µM
Tm (° C.) of peptide-c-Jun heterodimer (cJun bZIP [3]): 56.5 ° C.

B5: HingeW peptide variant 22 (peptide)
peptide: Ac-EAEELVVEEDVLEEEIEQLEERNYALRKEIKDLQDQ-NH2
notes: Synthetic, NΔ20 CΔ7; also called linear form of 22/23
IC50 CD (cJun bZIP [2]): 101 µM
Tm (° C.) of peptide-c-Jun heterodimer (cJun bZIP [3]): 55.6 ° C.

B6: HingeW variant peptide 18 (peptide)
peptide: Ac-EAEELVVEEDVLEEEIKQLEDRNYALRKEIEDLQKQ-NH2
notes: Synthetic, NΔ20 CΔ7; also called linear form of 18/19
IC50 CD (cJun bZIP [2]): 98.9 µM
Tm (° C.) of peptide-c-Jun heterodimer (cJun bZIP [3]): 55.5 ° C.

B7: HingeW variant peptide 19 (peptide)
peptide: Ac-EAEELVVEEDVLEEEIKQLEDRNYALRKEIEDLQKQ-NH2
modifications: lactam 17-21
SMILES: CC[C@H](C)[C@H](NC(=O)[C@H](CCC(=O)O)NC(=O)[C@H](CCCCN)NC(=O)[C@H](CCCNC(=N)N)NC(=O)[C@H](CC(C)C)NC(=O)[C@H](C)NC(=O)[C@H](Cc1ccc(O)cc1)NC(=O)[C@H](CC(N)=O)NC(=O)[C@H](CCCNC(=N)N)NC(=O)[C@@H]1CC(=O)NCCCC[C@H](NC(=O)[C@@H](NC(=O)[C@H](CCC(=O)O)NC(=O)[C@H](CCC(=O)O)NC(=O)[C@H](CCC(=O)O)NC(=O)[C@H](CC(C)C)NC(=O)[C@@H](NC(=O)[C@H](CC(=O)O)NC(=O)[C@H](CCC(=O)O)NC(=O)[C@H](CCC(=O)O)NC(=O)[C@@H](NC(=O)[C@@H](NC(=O)[C@H](CC(C)C)NC(=O)[C@H](CCC(=O)O)NC(=O)[C@H](CCC(=O)O)NC(=O)[C@H](C)NC(=O)[C@H](CCC(=O)O)NC(C)=O)C(C)C)C(C)C)C(C)C)[C@@H](C)CC)C(=O)N[C@@H](CCC(N)=O)C(=O)N[C@@H](CC(C)C)C(=O)N[C@@H](CCC(=O)O)C(=O)N1)C(=O)N[C@@H](CCC(=O)O)C(=O)N[C@@H](CC(=O)O)C(=O)N[C@@H](CC(C)C)C(=O)N[C@@H](CCC(N)=O)C(=O)N[C@@H](CCCCN)C(=O)N[C@@H](CCC(N)=O)C(N)=O
notes: Synthetic, NΔ20 CΔ7; also called cyclised form of 18/19
IC50 CD (cJun bZIP [2]): 94.4 µM
Tm (° C.) of peptide-c-Jun heterodimer (cJun bZIP [3]): 60.9 ° C.

B8: HingeW peptide variant 24 (HW30) (peptide)
peptide: Ac-EAEELVVEEKVLEDEIEQLEERNYALRKEIKDLQDQ-NH2
modifications: lactam 10-14, 31-35
SMILES: CC[C@H](C)[C@H](NC(=O)[C@H](CCC(=O)O)NC(=O)[C@H](CCCCN)NC(=O)[C@H](CCCNC(=N)N)NC(=O)[C@H](CC(C)C)NC(=O)[C@H](C)NC(=O)[C@H](Cc1ccc(O)cc1)NC(=O)[C@H](CC(N)=O)NC(=O)[C@H](CCCNC(=N)N)NC(=O)[C@H](CCC(=O)O)NC(=O)[C@H](CCC(=O)O)NC(=O)[C@H](CC(C)C)NC(=O)[C@H](CCC(N)=O)NC(=O)[C@H](CCC(=O)O)NC(=O)[C@@H](NC(=O)[C@H](CCC(=O)O)NC(=O)[C@@H]1CC(=O)NCCCC[C@H](NC(=O)[C@H](CCC(=O)O)NC(=O)[C@H](CCC(=O)O)NC(=O)[C@@H](NC(=O)[C@@H](NC(=O)[C@H](CC(C)C)NC(=O)[C@H](CCC(=O)O)NC(=O)[C@H](CCC(=O)O)NC(=O)[C@H](C)NC(=O)[C@H](CCC(=O)O)NC(C)=O)C(C)C)C(C)C)C(=O)N[C@@H](C(C)C)C(=O)N[C@@H](CC(C)C)C(=O)N[C@@H](CCC(=O)O)C(=O)N1)[C@@H](C)CC)C(=O)N[C@H]1CCCCNC(=O)C[C@@H](C(=O)N[C@@H](CCC(N)=O)C(N)=O)NC(=O)[C@H](CCC(N)=O)NC(=O)[C@H](CC(C)C)NC(=O)[C@H](CC(=O)O)NC1=O
notes: Synthetic, NΔ20 CΔ7; also called double lactamised peptide
-TΔS (cJun bZIP [4]): 19.6 kcal/mol
Kd (cJun bZIP [4]): 0.00969 µM
Stoichiometry, n (cJun bZIP [4]): 1.05
ΔG (cJun bZIP [4]): -10.9 kcal/mol
ΔH (cJun bZIP [4]): -30.5 kcal/mol
IC50 CD (cJun bZIP [2]): 44.9 µM
Tm (° C.) of peptide-c-Jun heterodimer (cJun bZIP [3]): 63.2 ° C.

B9: HingeW variant peptide 16 (peptide)
peptide: Ac-EAEELVVEEKVLEDEIEQLEERNYALRKEIEDLQKQ-NH2
notes: Synthetic, NΔ20 CΔ7; also called linear form of 16/17
IC50 CD (cJun bZIP [2]): 114 µM
Tm (° C.) of peptide-c-Jun heterodimer (cJun bZIP [3]): 54.9 ° C.

B10: HingeW variant peptide 14 (peptide)
peptide: Ac-EAKELVDEEDVLEEEIEQLEERNYALRKEIEDLQKQ-NH2
notes: Synthetic, NΔ20 CΔ7; also called linear form of 14/15
IC50 CD (cJun bZIP [2]): 100 µM
Tm (° C.) of peptide-c-Jun heterodimer (cJun bZIP [3]): 57.5 ° C.

B11: HingeW variant peptide 9 (peptide)
peptide: Ac-LVVEEDVLEEEIEQLEERNYALRKEIEDLQKQLEDL-NH2
notes: Synthetic, NΔ24 CΔ3; also called linear form of 9/10
IC50 CD (cJun bZIP [2]): 94.6 µM
Tm (° C.) of peptide-c-Jun heterodimer (cJun bZIP [3]): 62.1 ° C.

Molecule: Ac-EAEELVVEEDVLEEEIEQLEEKNKALKDEIEDLY-NH2 [HingeW variant peptide 26]
IC50 CD (cJun bZIP [2]): 1560 µM

Molecule: Ac-EAEELVVEEDVLEEEIEQLEERNYALRKEIEDLQKQLEKL-NH2 (Synthetic, NΔ20 CΔ3) [HingeW variant peptide 4]
-TΔS (cJun bZIP [4]): 35.7 kcal/mol
Kd (cJun bZIP [4]): 0.0911 µM
Stoichiometry, n (cJun bZIP [4]): 0.91
ΔG (cJun bZIP [4]): -9.68 kcal/mol
ΔH (cJun bZIP [4]): -45.4 kcal/mol
IC50 CD (cJun bZIP [2]): 45.4 µM
Tm (° C.) of peptide-c-Jun heterodimer (cJun bZIP [3]): 64.1 ° C.
